IntAct's records for PubMed 24590075

B1: Zinc finger MYND domain-containing protein 11 (Mus musculus), Q8R5C8 (parent)
chain: MARLTKRRQADTKAIQHLWAAIEIIRNQKQIANIDRITKYMSRVHGMHPKETTRQLSLAVKDGLIVETLTVGCKGSKAGIEQEGYWLPGDEIDWETETHDWYCFECHLPGEVLICDLCFRVYHSKCLSDEFRLRDSSSHWQCPVCRSIKKKHSNKQEMGTYLRFIVSRMKERAIDLNKKGKDSKHPMYRRLVHSAVDVPTIQEKVNEGKYRSYEEFKADAQLLLHNTVIFYGADSEQADIARMLYKDTCHELDELQLCKNCFYLSNARPDNWFCYPCIPNHELVWAKMKGFGFWPAKVMQKEDNQVDVRFFGHHHQRAWIPSENIQDITVNVHRLHVKRSMGWKKACDELELHQRFLREGRFWKSKNEDRGEEEAESSISSTSNEQLKVTQEPRAKKGRRNQSVEPKKEEPEPETEAVSSSQEIPTMPQPIERVSVSTQTKKLSASSPRMLHRSTQTTSDGVCQSMCHDKYTKIFNDFKDRMKSDHKRETERVVREALEKLRSEMEEEKRQAVNKAVASLQGDMDRKGKQLKEKCKEEFVEEIKKLAAQHKQLISQTKKKQWCYNCEEEAMYHCCWNTSYCSIKCQQEHWHAEHKRTCRRKR

Tests used:
h33_human H3-3A, P84243 [1] = variants of: B1; conditions: with h33_human H3-3A
h33_human H3-3A, P84243 [2] = variants of: B1; conditions: with h33_human H3-3A; remark: listed apart in the source

effect of a mutation on the interaction (h33_human H3-3A, P84243 [1]) | effect of a mutation on the interaction (h33_human H3-3A, P84243 [2]) | Variant
disrupting interaction strength | decreasing interaction strength | W294A
– | decreasing interaction strength | D307N
disrupting interaction strength | decreasing interaction strength | F310A
disrupting interaction strength | – | F291A
disrupting interaction strength | decreasing interaction strength | R168A
disrupting interaction strength | decreasing interaction strength | N266A
disrupting interaction strength | decreasing interaction strength | E251A
